Test results reported in patent US10125171 (APELLIS PHARMACEUTICALS, dated 2018).

Target: human complement component C3 (human, UniProt P01024 23-1663)
Experiment: cell-based or functional assay

Sequence of human complement component C3 (P01024 23-1663 limits assumed): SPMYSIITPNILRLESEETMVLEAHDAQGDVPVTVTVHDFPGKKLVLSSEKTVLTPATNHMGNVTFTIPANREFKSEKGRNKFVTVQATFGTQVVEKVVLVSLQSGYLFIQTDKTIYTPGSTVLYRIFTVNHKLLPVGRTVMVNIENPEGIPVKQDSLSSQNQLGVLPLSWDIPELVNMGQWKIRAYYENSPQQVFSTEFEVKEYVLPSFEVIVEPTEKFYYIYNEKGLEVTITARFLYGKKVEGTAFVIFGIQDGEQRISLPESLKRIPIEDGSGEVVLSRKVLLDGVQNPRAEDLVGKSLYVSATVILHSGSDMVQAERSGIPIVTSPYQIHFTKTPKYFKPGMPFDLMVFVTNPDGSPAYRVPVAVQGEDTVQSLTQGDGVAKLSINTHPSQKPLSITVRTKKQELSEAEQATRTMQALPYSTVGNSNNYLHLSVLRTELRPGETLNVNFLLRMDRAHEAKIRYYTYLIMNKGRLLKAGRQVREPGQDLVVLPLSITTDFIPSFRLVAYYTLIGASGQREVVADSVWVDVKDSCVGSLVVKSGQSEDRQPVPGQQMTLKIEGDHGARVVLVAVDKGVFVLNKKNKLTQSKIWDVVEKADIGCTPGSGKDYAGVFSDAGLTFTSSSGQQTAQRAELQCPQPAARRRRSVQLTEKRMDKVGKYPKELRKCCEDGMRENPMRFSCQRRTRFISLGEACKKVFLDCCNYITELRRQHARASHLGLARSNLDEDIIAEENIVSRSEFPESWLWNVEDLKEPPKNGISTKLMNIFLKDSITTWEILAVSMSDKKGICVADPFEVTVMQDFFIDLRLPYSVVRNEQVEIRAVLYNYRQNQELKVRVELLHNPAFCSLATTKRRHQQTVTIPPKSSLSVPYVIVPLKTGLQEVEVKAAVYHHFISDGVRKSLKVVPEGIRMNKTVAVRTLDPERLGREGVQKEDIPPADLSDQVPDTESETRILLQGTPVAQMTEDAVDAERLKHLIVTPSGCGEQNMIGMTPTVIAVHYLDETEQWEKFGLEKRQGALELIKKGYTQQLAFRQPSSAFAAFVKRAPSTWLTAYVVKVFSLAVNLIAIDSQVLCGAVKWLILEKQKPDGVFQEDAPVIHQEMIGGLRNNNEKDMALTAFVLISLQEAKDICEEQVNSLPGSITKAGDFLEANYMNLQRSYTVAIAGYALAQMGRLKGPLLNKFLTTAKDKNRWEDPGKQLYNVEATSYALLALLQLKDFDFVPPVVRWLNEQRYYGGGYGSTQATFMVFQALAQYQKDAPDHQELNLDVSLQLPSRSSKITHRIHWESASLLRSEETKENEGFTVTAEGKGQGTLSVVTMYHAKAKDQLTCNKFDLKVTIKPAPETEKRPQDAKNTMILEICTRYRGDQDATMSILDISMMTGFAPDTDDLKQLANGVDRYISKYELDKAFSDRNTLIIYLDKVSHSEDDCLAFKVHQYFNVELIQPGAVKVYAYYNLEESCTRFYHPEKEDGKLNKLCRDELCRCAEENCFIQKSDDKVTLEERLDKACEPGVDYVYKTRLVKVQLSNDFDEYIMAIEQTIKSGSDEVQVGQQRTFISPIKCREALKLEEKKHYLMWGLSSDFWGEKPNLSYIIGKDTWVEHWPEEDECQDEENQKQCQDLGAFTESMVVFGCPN

Row | activity relative to CA28 on a molar basis, classical complement inhibition assay [%] | complement inhibiting activity relative to CA28 on a molar basis | IC50 on a molar basis (corrected for 7.5 CA28 moieties per molecule), classical complement inhibition assay (C3b deposition ELISA, human plasma) [nM] | Binder
1 | ~30 | ~30 % of the activity of CA28 | – | ICVWQDWGAHRCTK (N-terminal acetyl; 1-methyl-tryptophan at position 4; disulfide Cys2-Cys12; AEEAc (8-amino-3,6-dioxaoctanoic acid) spacer between Thr13 and the C-terminal Lys; linear monofunctional 40 kD PEG coupled (NHS ester) to the Lys side chain; C-terminal amide) [CA28-AEEAc-Lys-(PEG40k)]
2 | ~30 | ~30 % of the activity of CA28 | – | ICVWQDWGAHRCTK (N-terminal acetyl; 1-methyl-tryptophan at position 4; disulfide Cys2-Cys12; AEEAc (8-amino-3,6-dioxaoctanoic acid) spacer between Thr13 and the C-terminal Lys; linear monofunctional 30 kD PEG coupled (NHS ester) to the Lys side chain; C-terminal amide) [CA28-AEEAc-Lys-(PEG30k)]
3 | – | – | ~260 | ICVWQDWGAHRCTK (N-terminal acetyl; 1-methyl-tryptophan at position 4; disulfide Cys2-Cys12; AEEAc spacer between Thr13 and the C-terminal Lys; Lys side chain coupled to one arm of an eight-arm 40 kD PEG (hexaglycerol octa(succinimidyloxyglutaryl)polyoxyethylene); C-terminal amide) [(CA28-AEEAc)8-PEG40k]
